Test results taken from patent publication US20100189719A1 (published 2010).

B4: murine VEGF (mVEGF) (ligand, mouse, UniProt Q00731-2 27-190, looked up)
chain: APTTEGEQKSHEVIKFMDVYQRSYCRPIETLVDIFQEYPDEIEYIFKPSCVPLMRCAGCCNDEALECVPTSESNITMQIMRIKPHQSQHIGEMSFLQHSRCECRPKKDRTKPENHCEPCSERRKHLFVQDPQTCKCSCKNTDSRCKARQLELNERTCRCDKPRR
notes: also called mouse VEGF

What was measured:
murine VEGF (mVEGF) [1] = biological target: B4; assay: BIAcore or solution binding ELISA, Fab
[2] = biological target: T1, Flt-1 ECD fragment (Ig domain1-5) (Flt-1D1-5) (UniProt P17948 27-553, limits assumed); assay: phage ELISA with wild type hVEGF phage
T1 construct: domain: Flt-1 ECD fragment (Ig domain1-5); also called Flt-1 receptor
T1 sequence (P17948 27-553 limits assumed): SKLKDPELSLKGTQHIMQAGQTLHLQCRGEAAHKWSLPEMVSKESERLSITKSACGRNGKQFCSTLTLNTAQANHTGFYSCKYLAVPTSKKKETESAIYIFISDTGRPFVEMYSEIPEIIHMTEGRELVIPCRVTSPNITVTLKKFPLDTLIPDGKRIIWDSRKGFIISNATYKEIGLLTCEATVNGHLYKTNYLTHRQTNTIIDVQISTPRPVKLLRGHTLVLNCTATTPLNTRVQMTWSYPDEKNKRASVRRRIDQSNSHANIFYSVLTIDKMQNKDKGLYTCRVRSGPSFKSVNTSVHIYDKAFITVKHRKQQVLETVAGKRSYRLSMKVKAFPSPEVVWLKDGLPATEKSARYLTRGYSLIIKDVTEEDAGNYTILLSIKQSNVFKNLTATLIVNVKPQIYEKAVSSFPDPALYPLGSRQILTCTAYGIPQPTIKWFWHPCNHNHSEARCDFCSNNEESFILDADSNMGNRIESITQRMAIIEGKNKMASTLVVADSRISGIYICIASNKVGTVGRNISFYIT

[3] = biological target: T2, human placenta growth factor (PlGF-2) (human, UniProt P49763-3 19-170, limits assumed); assay: direct ELISA on coated homolog (2 ug/ml) with increasing G6 Fab
T2 construct: also called human PlGF-2
T2 sequence (looked up): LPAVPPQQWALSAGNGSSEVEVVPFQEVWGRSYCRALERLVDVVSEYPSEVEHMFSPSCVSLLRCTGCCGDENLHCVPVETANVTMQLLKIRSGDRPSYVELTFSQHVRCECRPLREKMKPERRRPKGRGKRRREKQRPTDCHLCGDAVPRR

murine VEGF-D (mVEGF-D) = biological target: T3, murine VEGF-D (mVEGF-D) (mouse, UniProt P97946 98-206, limits assumed); assay: as above
T3 sequence (looked up): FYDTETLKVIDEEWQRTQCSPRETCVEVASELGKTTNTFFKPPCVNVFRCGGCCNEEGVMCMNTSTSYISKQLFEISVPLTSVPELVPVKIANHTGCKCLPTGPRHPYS

human VEGF-B = biological target: T4, human VEGF-B (human, UniProt P49765-2 22-188, limits assumed); assay: as above
T4 sequence (looked up): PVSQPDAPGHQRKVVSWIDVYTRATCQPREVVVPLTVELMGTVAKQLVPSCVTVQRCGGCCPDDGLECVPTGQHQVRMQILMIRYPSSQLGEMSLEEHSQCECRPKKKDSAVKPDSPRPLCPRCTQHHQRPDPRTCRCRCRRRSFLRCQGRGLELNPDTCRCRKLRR

[4] = biological target: T5, mouse placenta growth factor (PlGF-2) (mouse, UniProt P49764 19-158, limits assumed); assay: as above
T5 construct: also called murine PlGF-2
T5 sequence (looked up): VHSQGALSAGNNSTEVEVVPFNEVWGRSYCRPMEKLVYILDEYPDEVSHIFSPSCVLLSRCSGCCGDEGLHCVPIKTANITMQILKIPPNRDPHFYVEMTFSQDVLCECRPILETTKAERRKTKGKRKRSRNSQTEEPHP

murine VEGF (mVEGF) [5] = biological target: B4; assay: phage-blocking assay: receptor fragment at increasing concentration competes with phage clones for mVEGF-coated wells
[6] = biological target: T6, full extracellular domain (ECD) of KDR (UniProt P35968 20-764, limits assumed); assay: as above
T6 construct: extracellular domain; also called KDR ECD
T6 sequence (P35968 20-764 limits assumed): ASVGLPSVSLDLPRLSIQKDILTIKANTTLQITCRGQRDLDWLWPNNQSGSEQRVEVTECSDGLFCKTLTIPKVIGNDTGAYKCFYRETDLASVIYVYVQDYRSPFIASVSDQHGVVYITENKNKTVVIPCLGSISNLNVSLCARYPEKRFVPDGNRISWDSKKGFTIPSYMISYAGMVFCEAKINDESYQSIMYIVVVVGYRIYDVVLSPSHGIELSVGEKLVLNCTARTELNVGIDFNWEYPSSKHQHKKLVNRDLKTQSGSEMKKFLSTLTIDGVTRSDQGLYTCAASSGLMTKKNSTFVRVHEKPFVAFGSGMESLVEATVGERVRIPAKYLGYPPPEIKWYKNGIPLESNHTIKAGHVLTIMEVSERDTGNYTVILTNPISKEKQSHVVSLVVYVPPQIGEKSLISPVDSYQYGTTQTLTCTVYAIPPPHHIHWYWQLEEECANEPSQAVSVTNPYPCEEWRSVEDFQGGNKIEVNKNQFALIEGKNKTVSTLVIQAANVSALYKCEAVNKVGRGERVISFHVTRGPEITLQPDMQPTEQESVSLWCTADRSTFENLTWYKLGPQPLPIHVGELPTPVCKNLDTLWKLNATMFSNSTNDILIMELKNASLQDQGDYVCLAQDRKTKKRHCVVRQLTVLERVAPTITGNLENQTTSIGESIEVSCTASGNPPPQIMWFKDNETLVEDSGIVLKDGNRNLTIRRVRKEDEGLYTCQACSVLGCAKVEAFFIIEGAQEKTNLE

Y0317 Fab was tested, and the affinity (murine VEGF (mVEGF) [1]) was 350 nM.

B1: hVEGF displayed on phage (hVEGF1-109, wild type) (ligand, human, UniProt P15692 207-315, looked up)
chain: APMAEGGGQNHHEVVKFMDVYQRSYCHPIETLVDIFQEYPDEIEYIFKPSCVPLMRCGGCCNDEGLECVPTEESNITMQIMRIKPHQGQHIGEMSFLQHNKCECRPKKD
notes: Phage fusion partner not described; also called hVEGF displaying phage; hVEGF-phage
B1: binds [2].

B2: G6 Fab (Fab, V domains shown)
VH: EVQLVESGGGLVQPGGSLRLSCAASGFTISDYWIHWVRQAPGKGLEWVAGITPAGGYTYYADSVKGRFTISADTSKNTAYLQMNSLRAEDTAVYYCARFVFFLPYAMDYWGQGTLVTVSS
VL: DIQMTQSPSSLSASVGDRVTITCRASQDVSTAVAWYQQKPGKAPKLLIYSASFLYSGVPSRFSGSGSGTDFTLTISSLQPEDFATYYCQQSYTTPPTFGQGTKVEIKR
notes: Purified Fab from E. coli in most assays; also called Fab G6; FabG6
B2: no binding [3]; no binding (murine VEGF-D (mVEGF-D)); no binding (human VEGF-B). B2: no binding [4].

B3: second domain of Flt-1 (Flt-1D2) (receptor, UniProt P17948 129-229, looked up)
chain: SDTGRPFVEMYSEIPEIIHMTEGRELVIPCRVTSPNITVTLKKFPLDTLIPDGKRIIWDSRKGFIISNATYKEIGLLTCEATVNGHLYKTNYLTHRQTNTI
notes: domain: second domain of Flt-1 (Flt-1D2)
B3: binds (murine VEGF (mVEGF) [5]).

B4: binds [6].
